30 sequences from the nanobody polyreactivity screen of Harvey et al. (2022) can be followed below.

A short description of this data set: yeast display, Sf9 membrane polyspecificity reagent, FACS + sequencing; frameworks hold sequencing errors. A digest of the protocol: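 Polyreactivity labels are assigned by the sorting gate from which each nanobody was recovered. The gates were low and high (top ~1%), set on anti-HA fluorescence for expression and streptavidin fluorescence for reagent binding. Before sorting, galactose-induced (36–48 hours) yeast display cells were stained for 1 hour at 4 °C with 10% biotinylated, detergent-solubilized Sf9 membrane reagent.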
With “QVQLVESGGGLVQAGGSLRLSCAASGLTLSYYAMGWYRQAPGKERELVAAISSGGSTYYADSVKGRFTISRDNAKNTVYLQMNSLKPEDTAVYYCAAQWWRLYWEYYYWGQGTQVTVSS”, the “polyreactivity (PSR sort gate)” value is “low polyreactivity”.
Under “QVQLVESGGGLVQAGGSLRLSCAASGLTLTPYVMGWYRQAPGKEREFVAAITYTGGRTYYADSVKGRFTISRDNAKNTVYLKMNSLKPEDTAVYDCNKGYYQTWPRYYSWGQGTQVTVSS” stands “high polyreactivity”; under “QVQLVESGGGLVQAGGSLRLSCAASGLTLYRYAMGWYRQAPGKEREFVASISWSGGSTYYADSVKGRFTISRDNANNTVYLQMNSLKPEDTAVYYCATDSDTSQLGYDYWGQGTQVTVSS”, “low polyreactivity”.
To “QVQLVESGGGLVQAGGSLRLSCAASGLTSDENAMGWYRQAPGKERELVAVISNSGDSTYYADSVKGRFTISRDTAKNTVYLQLNSLKPEDTAVYNCAADGLSKFDYWGQGTQVTVSS” belongs “low polyreactivity”; to “QVQLVESGGGLVQAGGSLRLSCAASGLTSLGNAMGWYRQAPGKERELVAAITRTGTSTYYADSVKGRFTISRDNAKNTVYLQMNSLKPEDTAVYYCAALDRYSTEYKYQLYKQEYDYWVQGTQVTVSS”, “low polyreactivity”; to “QVQLVESGGGLVQAGGSLRLSCAASGLTSSGNAMGWYRQAPGKERELVAAISWKAGSTYYADSVKGRFTISRDNAKNTVYLQMNSLKPEDTGVYYCAATLWSKTGYDYWGQGTIVTVSS”, “low polyreactivity”.
Under “QVQLVESGGGLVQAGGSLRLSCAASGLTSTNNAMGWYRQAHGKERELVAAITSGSTTNYADSVKGRFTISRDNAKNTVYLQMNSLKPEDTAVYYCAAQYGVCWRRYYYPEYDYWGQGTQVTVSS” stands “low polyreactivity”.
As to “QVQLVESGGGLVQAGGSLRLSCAASGLTSYDYGMGWYRQAPGKERELVAAITWSGGSTYYADSVKGRFTISRDNAKNTVYLEMHSLKPEDTAVYYCAAESWGYGWYGYWGQGNQVTVSS”, the “polyreactivity (PSR sort gate)” value is reported as “low polyreactivity”.
Under “QVQLVESGGGLVQAGGSLRLSCAASGLTYKYYAMGWYRQAPGKERELVARISRGGNTNYADSVKGRFTISRDNAKNTVYLQMNSVKPEDTAVFYCAATVRVYDYWGQGTQVSVSS” stands “high polyreactivity”.
Consider “QVQLVESGGGLVQAGGSLRLSCAASGMIFGYYAMGWYRQAPAKERELVAAITGSGGRTYYADSVKGRFTISRDNAKNTVYLQMNSLKTEDTAVYYCADRGVNGMGYWGQGTHVTVSS”, for which the “polyreactivity (PSR sort gate)” value was “high polyreactivity”.
To “QVQLVESGGGLVQAGGSLRLSCAASGNAIGWYRQAPGKERELVASINRSGGRTYYADSVKGRFTISRDNAKNTVYLQMNSLKPEDTAVYYCAARTHYDSDYWGQGTQVTVSS” belongs “low polyreactivity”; to “QVQLVESGGGLVQAGGSLRLSCAASGNIFANAMGWYRQAPGKERELVAAISRSGGSTYYADSVKGRFTISRDNAKNTVYLQMNSLKPEDTAVYYCAARTTRGPTFGYWGQGTQVTVSS”, “high polyreactivity”.
Under “QVQLVESGGGLVQAGGSLRLSCAASGNIFATYAMGWYRQAPGKESELVAAITSSGGRTYYADSVKGRFTISRDNAKISVYLQMNSLKPEDTAVYNCNAVYSLYYTRYNYWGHGTQVTVSS” stands “high polyreactivity”; under “QVQLVESGGGLVQAGGSLRLSCAASGNIFAYYAMGWYRQAPGKERELVAAISRRGGSTYYADSVKGRFTISRDNAKNTVYLQMNSLKPEDTAVYYCNADTGNRGYDYWGQGTQVTVSS”, “high polyreactivity”; under “QVQLVESGGGLVQAGGSLRLSCAASGNIFDIYAMGWYRQATGKERELVAAICSGGSTYYADSVKGRFTISRDNAKNTVYLQMISLKTEDTAVDYCAESRVGYYRYEYWGQGTQVTVSS”, “low polyreactivity”.
To “QVQLVESGGGLVQAGGSLRLSCAASGNIFDRNAMGWYRHAPGKQRELVAAISRSGGRTYYADSVKGRFTISRDNAKNTVYLQMISLKPEDTGVYYCATTYGGTYEYDYWGQGTQVTVSS” belongs “high polyreactivity”; to “QVQLVESGGGLVQAGGSLRLSCAASGNIFDSNAMGWYRQAPGKERELVAAITWSGGSTYYADSVKGRFTISRDNAKNTVYLQMNSLKPEDTAVYYCNAVRQQRNVPGGQYEFDYWGQGTQVTVSS”, “high polyreactivity”; to “QVQLVESGGGLVQAGGSLRLSCAASGNIFDTNAMGWYRQAPGKERELVATITQRGGTTYYADSVKGRFTISRDNAKNTVYLQINILKPEDTAVYYCNAGPVRLPYDSWGQGTQVTVSS”, “low polyreactivity”.
On to “QVQLVESGGGLVQAGGSLRLSCAASGNIFFVYDMGWYRQSPGKERELVAAISWSGGSTYADSVKGRFTISRDNAKNTVYLQMNSLKPEDTAVYYCNAQGYRYRIGYDYWGQGTQVTVSS”, for which the “polyreactivity (PSR sort gate)” value is listed as “low polyreactivity”.
To “QVQLVESGGGLVQAGGSLRLSCAASGNIFGFYTMGWYRQAPGKERELVAAIRSRGGSTNYADSVKGRFTISRDNAKNTVYIQMNSLKPEDTAVYYCNKDGTWLARAVTYADFDYWGQGTQVTVSS” belongs “low polyreactivity”; to “QVQLVESGGGLVQAGGSLRLSCAASGNIFGIYTMGWYRQAPGKEREFFAVISLSGTSTYYADSVKGRFTISRDNAKNTVYLQMNSLKPEDTAVYYCNARTPHNKGRRRAYDYWGLGTQVTVSS”, “high polyreactivity”.
Under “QVQLVESGGGLVQAGGSLRLSCAASGNIFGKYAMGWYRQAPGKERELVAAISSGGRTNYADSVKGRFTISRDNAKNTVYLQMNSLKPEDTAVYYCAKRYFRTKGYYYWGQGTQVTVSS” stands “high polyreactivity”; under “QVQLVESGGGLVQAGGSLRLSCAASGNIFGWYAMGWYRQAPGKERELVAAISSGGRTNYADSVKGRFTISRDNAKNTVYLQMNSLKPEETAVYYCAVGLHKRPPPPRFRQFNYWGQGTQVTVSS”, “low polyreactivity”.
To “QVQLVESGGGLVQAGGSLRLSCAASGNIFGYYVMGWYRPAPGKERELVAGISSGDSTDYADSVKGRFTISRDNAKNTVYLQMNSLKPEDTAVYYCNADWNPTERWFYWYTPLGYDYWGQGTQVTVSS” belongs “low polyreactivity”.
As to “QVQLVESGGGLVQAGGSLRLSCAASGNIFHFYAIARYRQAPRKERELVATISWRGDGTYYADSVKGRFTISRDKAKNTVYFQLISLKPEETAVDYCAARGVWPEYDYWGQGTQVTVSS”, the “polyreactivity (PSR sort gate)” value is “low polyreactivity”.
To “QVQLVESGGGLVQAGGSLRLSCAASGNIFKGYAMGWYRQAPGKERELVAAISKSGGSTYYADSVKGRFTISRDNAKNTVYLQMNSLKPEDTAVYYCAARSGGSGGTYGYWGQGTQVTVSS” belongs “high polyreactivity”; to “QVQLVESGGGLVQAGGSLRLSCAASGNIFKSYTMGWYRQAPGKERELVAAITSGGRTNYADSVKGRFTISRDNAKNTVYLQMNSLKPEDTAVYYCAAKHFRWGTGDYWGQGTQVTVSS”, “high polyreactivity”.
As to “QVQLVESGGGLVQAGGSLRLSCAASGNIFKWYAMGWYRQAPGKERELVAAISKSGGSTYYADSVKGRFTISRDNAKNTVYLQMNSLKPEDTAVYYCAAGWKHGTYRYTVESNFDYWGQGTQVTVSS”, the “polyreactivity (PSR sort gate)” value is reported as “high polyreactivity”.
To “QVQLVESGGGLVQAGGSLRLSCAASGNIFKYYAMGWYRQAPGKERELVAAISWGGSRTYYADSVKGRFTISRDNAKNTVSLQMNSLKPEDTAVYYCAARVYGVDGFGYWGLGTQVTVSS” belongs “high polyreactivity”.
To “QVQLVESGGGLVQAGGSLRLSCAASGNIFLFYVMAWYRQAPGKERELVAAITLSGTNTYYADSVKGRFTISRDNAKNTVYLQMNSLKPDDTAVYYCAAEPKTYDWYPWGQVIENYWGQGTQVTVSS” belongs “low polyreactivity”.
